These results are taken from article PMC11500106, “Characterization of Medusavirus encoded histones reveals nucleosome-like structures and a unique linker histone”.

This series has as its target eH1.0 (Mus musculus, UniProt P10922 1-194). Briefly: fluorescence polarization; unit inferred from the titration (0-10 uM; fitted as EC50); FP: 20 mM Tris pH 7.5, 1 mM DTT, 1 mM EDTA, room temperature, 1 h, 10 nM DNA; reconstitution: salt-gradient dialysis 2 M to 50 mM NaCl. The following applies: protein: recombinant; label: 5' 6-FAM; only one strand printed (Results call it a 35-mer).

Chain of eH1.0 (P10922 whole entry): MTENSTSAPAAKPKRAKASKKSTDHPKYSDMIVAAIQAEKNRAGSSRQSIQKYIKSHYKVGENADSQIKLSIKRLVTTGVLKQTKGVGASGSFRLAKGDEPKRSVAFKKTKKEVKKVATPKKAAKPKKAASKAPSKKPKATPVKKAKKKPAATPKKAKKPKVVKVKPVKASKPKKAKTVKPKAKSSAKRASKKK

One may read the Kd as the equilibrium constant for the complex coming apart. On to GCAGCTGGCACGACAGGTATGAATC (mixed) [FP 25-mer DNA], for which the equilibrium dissociation constant (Kd) amounted to 18.1 nM.
